# According to patent publication US7691806B2, “Repeat sequence protein polymer active agent congjugates, methods and uses” (priority 2003, dated 2010):
# B1: SELP47K-P4 (protein)
# chain: MDPVVLQRRDWENPGVTQLNRLAAHPPFASDPMGAGAGSGAGAGSALSYPGVGVPGVGVPGVGVPGVGVPGKGVPGVGVPGVGVPGVGVPALSYPGAGAGSGAGAGSGAGAGSGAGAGSALSYPGVGVPGVGVPGVGVPGVGVPGKGVPGVGVPGVGVPGVGVPALSYPGAGAGSGAGAGSGAGAGSGAGAGSALSYPGVGVPGVGVPGVGVPGVGVPGKGVPGVGVPGVGVPGVGVPALSYPGAGAGSGAGAGSGAGAGSGAGAGSALSYPGVGVPGVGVPGVGVPGVGVPGKGVPGVGVPGVGVPGVGVPALSYPGAGAGSGAGAGSGAGAGSGAGAGSALSYPGVGVPGVGVPGVGVPGVGVPGKGVPGVGVPGVGVPGVGVPALSYPGAGAGSGAGAGSGAGAGSGAGAGSALSYPGVGVPGVGVPGVGVPGVGVPGKGVPGVGVPGVGVPGVGVPALSYPGAGAGSGAGAGSGAGAGSGAGAGSALSYPGVGVPGVGVPGVGVPGVGVPGKGVPGVGVPGVGVPGVGVPALSYPGAGAGSGAGAGSGAGAGSGAGAGSALSYPGVGVPGVGVPGVGVPGVGVPGKGVPGVGVPGVGVPGVGVPALSYPGAGAGSGAGAGSGAGAGSGAGAGSALSYPGVGVPGVGVPGVGVPGVGVPGKGVPGVGVPGVGVPGVGVPALSYPGAGAGSGAGAGSGAGAGSGAGAGSALSYPGVGVPGVGVPGVGVPGVGVPGKGVPGVGVPGVGVPGVGVPALSYPGAGAGSGAGAGSGAGAGSGAGAGSALSYPGVGVPGVGVPGVGVPGVGVPGKGVPGVGVPGVGVPGVGVPALSYPGAGAGSGAGAGSGAGAGSGAGAGSALSYPGVGVPGVGVPGVGVPGVGVPGKGVPGVGVPGVGVPGVGVPALSYPGAGAGSGAGAGSGAGAGSGAGAGSALSYPGVGVPGVGVPGVGVPGVGVPGKGVPGVGVPGVGVPGVGVPALSYPGAGAGSGAGAGSGAGAMDPGRYQDLRSHHHHHH
# modifications: P4-SELP47K silk, elastin ad UV-protective peptides
# Test system: Human dermal fibroblasts
# Experiment: Fibroblast cell survival after UVB exposure (MTT assay)
# Type: cell-based
# Conditions: UVB approximately 50 mj/cm^2, treated after exposure, MTT 48 hours later
# Source text: Construction, analysis and verification of the SELP47K-P4 (SEQ. ID. NO. 36) conjugate proceeded as follows. SELP constructs in which all polymer subunits contain additional P4 (ALSYP) peptide sequences were made as follows: Artificial gene synthesis was used to create a 2 subunit version of the desired construct in which each identical subunit contains a unique non-palindromic restriction site. Specifically, SELP subunits contained either BBI derived P4 sequences (Seq ALSYP) incorporated in two places per subunit, flanking the silk region, incorporated between the C-terminal end of the silk region and the N-terminal end of the elastin region. A BsgI restriction enzyme cleavage site was designed within each subunit. Gene construction was carried out by Blue Heron Biotechnology (Bothell, Wash.). […] Resulting modified SELP monomers as well as plasmid vector were purified from agarose gels and concentrated using a Spin Vac. Monomers were self ligated using T4 DNA ligase (New England Biolabs) as per manufacturer's instructions overnight at 16 C. Original purified vector was added to ligation mix with additional fresh ligase and incubated at 16 C for an additional 24 hrs. Ligation mix was used to transform E. coli TOP10 cells (Invitrogen) as per manufacturer's instructions. Resulting transformants were used to inoculate culture tubes containing 5 ml Luria broth and appropriate antibiotic. […]
molecule,measurement,value
B1,viability improvement of UV treated human fibroblast cells,100%
